Source: patent publication US11622990

Target: Recombinant human glucose-regulated protein GRP78 (human) (UniProt P11021)
Assay: SPR (Biacore T200), recombinant human GRP78 coupled to a CM5 chip, peptide injected at 0.3125-20 µM

Chain of Recombinant human glucose-regulated protein GRP78 (human) (P11021 19-654 limits assumed): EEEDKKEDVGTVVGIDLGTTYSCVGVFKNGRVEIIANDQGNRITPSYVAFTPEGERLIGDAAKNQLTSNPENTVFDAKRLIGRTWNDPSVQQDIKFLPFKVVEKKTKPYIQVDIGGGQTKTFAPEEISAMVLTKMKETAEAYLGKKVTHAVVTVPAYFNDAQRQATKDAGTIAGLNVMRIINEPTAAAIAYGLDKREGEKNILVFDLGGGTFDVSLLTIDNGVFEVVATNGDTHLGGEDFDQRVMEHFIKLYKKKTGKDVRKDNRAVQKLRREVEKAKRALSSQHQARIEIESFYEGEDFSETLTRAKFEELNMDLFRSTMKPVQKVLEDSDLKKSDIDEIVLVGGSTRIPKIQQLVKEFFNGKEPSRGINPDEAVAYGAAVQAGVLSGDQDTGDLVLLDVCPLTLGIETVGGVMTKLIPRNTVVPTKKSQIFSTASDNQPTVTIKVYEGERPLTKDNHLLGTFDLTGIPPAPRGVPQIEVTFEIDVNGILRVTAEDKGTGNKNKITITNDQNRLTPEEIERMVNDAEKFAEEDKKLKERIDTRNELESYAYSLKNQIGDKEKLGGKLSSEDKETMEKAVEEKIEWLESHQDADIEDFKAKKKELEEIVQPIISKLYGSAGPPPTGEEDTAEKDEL

Kd: 5.22 µM
koff: 0.0283 s⁻¹
Binder: SNTRVAP (all seven residues are D-configuration amino acids (^DS^DN^DT^DR^DV^DA^DP)) [SVAP (D-configuration peptide DS-DN-DT-DR-DV-DA-DP)]
